Patent US20070065878A1

Key:
[1] = target: T1, F07 (TEV substrate clone, 5X library)
T1 chain: EENLG

[2] = target: T2, D07 (TEV substrate clone, 5X library)
T2 chain: REVLY

[3] = target: T3, B09 (TEV substrate clone, 5X library)
T3 chain: LEQLI

[4] = target: T4, G03 (TEV substrate clone, 5X library)
T4 chain: GDMGY

[5] = target: T5, C05 (TEV substrate clone, 5X library)
T5 chain: REVGY

[6] = target: T6, D08 (TEV substrate clone, 5X library)
T6 chain: LEWLK

[7] = target: T7, D11 (TEV substrate clone, 5X library)
T7 chain: GEHVY

[8] = target: T8, E09 (TEV substrate clone, 5X library)
T8 chain: SEPLR

[9] = target: T9, A05 (TEV substrate clone, 5X library)
T9 chain: FEDLL

[10] = target: T10, B11 (TEV substrate clone, 5X library)
T10 chain: GETVY

[11] = target: T11, C5 (TEVopt library clone)
T11 chain: ELYAQG

[12] = target: T12, C10 (TEV substrate clone, 5X library)
T12 chain: PEVIY

[13] = target: T13, H04 (TEV substrate clone, 5X library)
T13 chain: MEDLM

[14] = target: T14, F09 (TEV substrate clone, 5X library)
T14 chain: GEDLL

[15] = target: T15, E05 (TEV substrate clone, 5X library)
T15 chain: RDDGY

[16] = target: T16, H08 (TEV substrate clone, 5X library)
T16 chain: WEPLW

[17] = target: T17, C3 (TEVopt library clone)
T17 chain: DLYWQG

[18] = target: T18, D05 (TEV substrate clone, 5X library)
T18 chain: GEAGV

[19] = target: T19, D4 (TEVopt library clone)
T19 chain: LLYIQG

[20] = target: E03 (TEV substrate clone, 5X library)
[21] = target: T20, B6 (TEVopt library clone)
T20 chain: EVYVQG

[22] = target: T21, D09 (TEV substrate clone, 5X library)
T21 chain: MEMLR

[23] = target: T22, H11 (TEV substrate clone, 5X library)
T22 chain: AEWGR

[24] = target: T23, F05 (TEV substrate clone, 5X library)
T23 chain: DRELY

[25] = target: T24, H06 (TEV substrate clone, 5X library)
T24 chain: EEELW

[26] = target: T25, D01 (TEV substrate clone, 5X library; as in Table 5A)
T25 chain: DVQLY

[27] = target: Control (TEV substrate ENLYFQS)
[28] = target: T26, A3 (TEVopt library clone)
T26 chain: ALYIQG

[29] = target: T27, D02 (TEV substrate clone, 5X library)
T27 chain: DSELY

[30] = target: T28, B02 (TEV substrate clone, 5X library)
T28 chain: EEELY

[31] = target: T29, D04 (TEV substrate clone, 5X library)
T29 chain: GEALF

[32] = target: T30, B07 (TEV substrate clone, 5X library)
T30 chain: MEEVY

[33] = target: T31, G05 (TEV substrate clone, 5X library)
T31 chain: LRELW

[34] = target: T32, D01 (TEV substrate clone, 5X library; as in Table 6)
T32 chain: GEVLW

[35] = target: T33, C04 (TEV substrate clone, 5X library)
T33 chain: RRMAE

[36] = target: T34, C6 (TEVopt library clone)
T34 chain: QLYFQS

[37] = target: T35, E01 (TEV substrate clone, 5X library)
T35 chain: EEYLW

[38] = target: T36, C4 (TEVopt library clone)
T36 chain: ELYWQG

[39] = target: T37, G02 (TEV substrate clone, 5X library)
T37 chain: GEAGF

[40] = target: T38, C07 (TEV substrate clone, 5X library)
T38 chain: VEPIY

[41] = target: T39, A1 (TEVopt library clone)
T39 chain: FLYLQG

[42] = target: T40, E07 (TEV substrate clone, 5X library)
T40 chain: ETILY

[43] = target: T41, H09 (TEV substrate clone, 5X library)
T41 chain: GEALF

[44] = target: D03 (TEV substrate clone, 5X library)
[45] = target: T42, F02 (TEV substrate clone, 5X library)
T42 chain: EEYLW

[46] = target: T43, E6 (TEVopt library clone)
T43 chain: VLYTQG

[47] = target: T44, D1 (TEVopt library clone)
T44 chain: WLYLQG

[48] = target: T45, E4 (TEVopt library clone)
T45 chain: SLYVQG

[49] = target: T46, G06 (TEV substrate clone, 5X library)
T46 chain: SEDLW

[50] = target: T47, H07 (TEV substrate clone, 5X library)
T47 chain: EEAVL

[51] = target: T48, A2 (TEVopt library clone)
T48 chain: DVYVQG

[52] = target: T49, H03 (TEV substrate clone, 5X library)
T49 chain: ARQIR

[53] = target: T50, E11 (TEV substrate clone, 5X library)
T50 chain: WESLY

[54] = target: T51, C11 (TEV substrate clone, 5X library)
T51 chain: DGALY

[55] = target: T52, F03 (TEV substrate clone, 5X library)
T52 chain: LESLV

[56] = target: T53, D5 (TEVopt library clone)
T53 chain: SLYWQG

[57] = target: T54, C09 (TEV substrate clone, 5X library)
T54 chain: RELVY

[58] = target: T55, D10 (TEV substrate clone, 5X library)
T55 chain: LYFQG

[59] = target: T56, A4 (TEVopt library clone)
T56 chain: VLYLQS

[60] = target: T57, F04 (TEV substrate clone, 5X library)
T57 chain: DRELY

[61] = target: T58, G08 (TEV substrate clone, 5X library)
T58 chain: MEWLW

[62] = target: T59, A06 (TEV substrate clone, 5X library)
T59 chain: FEDGL

[63] = target: T60, F11 (TEV substrate clone, 5X library)
T60 chain: GEPLW
Wherever % Conversion is given: test concentration or dose not given here.
Wherever Conversion (group heading of the table) is given: test concentration or dose not given here.
Wherever Fl (fluorescence without TEV) is given: unit not given here.
Wherever Fl after TEV is given: unit not given here.

B1: tobacco etch virus protease (protein)
chain: GESLFKGPRDYNPISSTICHLTNESDGHTTSLYGIGFGPFIITNKHLFRRNNGTLLVQSLHGVFKVKNTTTLQQHLIDGRDMIIIRMPKDFPPFPQKLKFREPQREERICLVTTNFQTKSMSSMVSDTSCTFPSSDGIFWKHWIQTKDGQCGSPLVSTRDGFIVGIHSASNFTNTNNYFTSVPKNFMELLTNQEAQQWVSGWRLNADSVLWGGHKVFMSKPEEPFQPVKEATQLMNELVYSQ
- Conversion (group heading of the table) [1]: 50%-60% Conversion
- Conversion (group heading of the table) [2]: 60%-90% Conversion
- % Conversion (fraction (head says % Conversion)) [3]: 0.76
- Conversion (group heading of the table) [3]: 60%-90% Conversion
- Fl (fluorescence without TEV) [3]: 3250
- Fl after TEV [3]: 980
- Conversion (group heading of the table) [4]: 30%-50% conversion
- Conversion (group heading of the table) [5]: 30%-50% conversion
- Conversion (group heading of the table) [6]: 60%-90% Conversion
- Conversion (group heading of the table) [7]: 60%-90% Conversion
- Conversion (group heading of the table) [8]: 60%-90% Conversion
- Conversion (group heading of the table) [9]: 50%-60% Conversion
- Conversion (group heading of the table) [10]: 30%-50% conversion
- % Conversion (fraction (head says % Conversion)) [11]: 0.588
- % Conversion (fraction (head says % Conversion)) [12]: 0.81
- Conversion (group heading of the table) [12]: 60%-90% Conversion
- Fl (fluorescence without TEV) [12]: 6110
- Fl after TEV [12]: 1380
- Conversion (group heading of the table) [13]: 50%-60% Conversion
- % Conversion (fraction (head says % Conversion)) [14]: 0.71
- Conversion (group heading of the table) [14]: 60%-90% Conversion
- Fl (fluorescence without TEV) [14]: 4810
- Fl after TEV [14]: 1550
- Conversion (group heading of the table) [15]: 30%-50% conversion
- % Conversion (fraction (head says % Conversion)) [16]: 0.73
- Conversion (group heading of the table) [16]: 60%-90% Conversion
- Fl (fluorescence without TEV) [16]: 3970
- Fl after TEV [16]: 1250
- % Conversion (fraction (head says % Conversion)) [17]: 0.734
- Conversion (group heading of the table) [18]: 30%-50% conversion
- % Conversion (fraction (head says % Conversion)) [19]: 0.517
- Conversion (group heading of the table) [20]: 60%-90% Conversion
- % Conversion (fraction (head says % Conversion)) [21]: 0.61
- Conversion (group heading of the table) [22]: 60%-90% Conversion
- Conversion (group heading of the table) [23]: 30%-50% conversion
- Conversion (group heading of the table) [24]: 50%-60% Conversion
- Conversion (group heading of the table) [25]: 60%-90% Conversion
- Conversion (group heading of the table) [26]: 60%-90% Conversion
- % Conversion (fraction (head says % Conversion)) [27]: 0.664
- % Conversion (fraction (head says % Conversion)) [28]: 0.922
- Conversion (group heading of the table) [29]: 60%-90% Conversion
- % Conversion (fraction (head says % Conversion)) [30]: 0.72
- Conversion (group heading of the table) [30]: 60%-90% Conversion
- Fl (fluorescence without TEV) [30]: 3270
- Fl after TEV [30]: 1080
- Conversion (group heading of the table) [31]: 50%-60% Conversion
- Conversion (group heading of the table) [32]: 50%-60% Conversion
- Conversion (group heading of the table) [33]: 60%-90% Conversion
- % Conversion (fraction (head says % Conversion)) [34]: 0.87
- Fl (fluorescence without TEV) [34]: 3840
- Fl after TEV [34]: 725
- Conversion (group heading of the table) [35]: 60%-90% Conversion
- % Conversion (fraction (head says % Conversion)) [36]: 0.618
- Conversion (group heading of the table) [37]: 50%-60% Conversion
- % Conversion (fraction (head says % Conversion)) [38]: 0.689
- Conversion (group heading of the table) [39]: 30%-50% conversion
- Conversion (group heading of the table) [40]: 30%-50% conversion
- % Conversion (fraction (head says % Conversion)) [41]: 0.918
- Conversion (group heading of the table) [42]: 50%-60% Conversion
- Conversion (group heading of the table) [43]: 60%-90% Conversion
- Conversion (group heading of the table) [44]: 60%-90% Conversion
- Conversion (group heading of the table) [45]: 30%-50% conversion
- % Conversion (fraction (head says % Conversion)) [46]: 0.549
- % Conversion (fraction (head says % Conversion)) [47]: 0.68
- % Conversion (fraction (head says % Conversion)) [48]: 0.863
- Conversion (group heading of the table) [49]: 60%-90% Conversion
- % Conversion (fraction (head says % Conversion)) [50]: 0.71
- Conversion (group heading of the table) [50]: 60%-90% Conversion
- Fl (fluorescence without TEV) [50]: 2990
- Fl after TEV [50]: 1040
- % Conversion (fraction (head says % Conversion)) [51]: 0.526
- Conversion (group heading of the table) [52]: 30%-50% conversion
- % Conversion (fraction (head says % Conversion)) [53]: 0.77
- Conversion (group heading of the table) [53]: 60%-90% Conversion
- Fl (fluorescence without TEV) [53]: 5050
- Fl after TEV [53]: 1360
- Conversion (group heading of the table) [54]: 50%-60% Conversion
- Conversion (group heading of the table) [55]: 60%-90% Conversion
- % Conversion (fraction (head says % Conversion)) [56]: 0.717
- Conversion (group heading of the table) [57]: 30%-50% conversion
- Conversion (group heading of the table) [58]: 60%-90% Conversion
- % Conversion (fraction (head says % Conversion)) [59]: 0.854
- % Conversion (fraction (head says % Conversion)) [60]: 0.79
- Conversion (group heading of the table) [60]: 60%-90% Conversion
- Fl (fluorescence without TEV) [60]: 5910
- Fl after TEV [60]: 1420
- Conversion (group heading of the table) [61]: 60%-90% Conversion
- Conversion (group heading of the table) [62]: 30%-50% conversion
- Conversion (group heading of the table) [63]: 50%-60% Conversion
